Laboratory results as given in PMC4894640.

Target: F-actin (polymerized non-muscle actin) (UniProt P60709)
Experiment: co-sedimentation; as the F-actin co-sedimentation, with in vitro synthesized HA-RAB-10(Q68L) (control: HA-only) added to the mixture

- increase of co-sedimentation with HA-RAB-10(Q68L) against without: 67%
Substance: GST-EHBP-1(260-901aa) (domain or fragment)
